Assay results reported in article PMC9891525.

Biological target: SARS-CoV-2 Delta variant S1 protein (SARS-CoV-2)
Assay: SPR

How did the Kd turn out when original monoclonal antibody REGN10987 was run?
The Kd was 0.9 nM.
